Source: article doi:10.1101/2022.10.04.510902 (bioRxiv, 2022)

Assays:
[1] = target: TAMRA-BMAL1 mTAD WT probe (mouse); test: fluorescence polarisation
[2] = target: TAMRA-BMAL1 mTAD Δswitch probe (594-F619Y) (mouse); test: fluorescence polarisation
[3] = target: BMAL1 transactivation domain (TAD), residues 579-626 (mouse); test: ITC
[4] = target: Full-length mouse His-PERIOD2-flag (mouse, UniProt O54943 1-1257); test: pull-down
Sequence of Full-length mouse His-PERIOD2-flag (O54943 whole entry): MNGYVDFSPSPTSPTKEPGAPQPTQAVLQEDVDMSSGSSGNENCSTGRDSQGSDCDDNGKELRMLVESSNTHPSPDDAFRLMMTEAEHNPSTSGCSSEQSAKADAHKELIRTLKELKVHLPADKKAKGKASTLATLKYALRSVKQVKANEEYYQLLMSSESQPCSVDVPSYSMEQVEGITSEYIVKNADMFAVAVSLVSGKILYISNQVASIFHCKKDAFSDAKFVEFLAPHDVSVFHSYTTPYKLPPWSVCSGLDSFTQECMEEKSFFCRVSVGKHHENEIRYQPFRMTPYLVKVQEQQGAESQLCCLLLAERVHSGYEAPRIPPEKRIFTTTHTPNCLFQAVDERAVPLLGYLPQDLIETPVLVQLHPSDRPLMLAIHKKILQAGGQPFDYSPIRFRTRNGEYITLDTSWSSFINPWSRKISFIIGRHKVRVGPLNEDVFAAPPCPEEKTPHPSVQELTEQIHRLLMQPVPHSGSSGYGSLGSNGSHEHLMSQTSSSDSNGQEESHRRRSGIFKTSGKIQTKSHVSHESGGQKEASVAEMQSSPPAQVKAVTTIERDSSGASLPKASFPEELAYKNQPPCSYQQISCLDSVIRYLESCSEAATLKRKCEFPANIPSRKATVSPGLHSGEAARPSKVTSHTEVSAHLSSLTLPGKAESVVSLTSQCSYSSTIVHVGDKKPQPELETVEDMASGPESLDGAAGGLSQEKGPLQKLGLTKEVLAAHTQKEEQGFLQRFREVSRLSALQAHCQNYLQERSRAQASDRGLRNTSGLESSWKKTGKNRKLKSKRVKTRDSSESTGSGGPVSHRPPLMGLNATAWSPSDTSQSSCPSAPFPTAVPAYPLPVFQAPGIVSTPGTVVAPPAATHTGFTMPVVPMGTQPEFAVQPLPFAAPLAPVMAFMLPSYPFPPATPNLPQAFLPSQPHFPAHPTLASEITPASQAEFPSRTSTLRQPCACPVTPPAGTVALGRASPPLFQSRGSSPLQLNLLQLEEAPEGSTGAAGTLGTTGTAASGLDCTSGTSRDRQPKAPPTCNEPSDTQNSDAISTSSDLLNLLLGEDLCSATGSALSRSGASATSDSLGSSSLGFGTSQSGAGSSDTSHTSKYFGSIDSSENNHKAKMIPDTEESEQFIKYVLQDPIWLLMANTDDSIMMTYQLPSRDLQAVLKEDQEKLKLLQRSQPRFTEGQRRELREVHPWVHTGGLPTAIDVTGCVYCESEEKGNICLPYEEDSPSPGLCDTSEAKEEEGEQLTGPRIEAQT

B1: CHRONO minimal repressive domain (MRD), tag form not stated (domain or fragment)
chain: ELETSLNTQGCTTEGDLLFAQKCKELQGFIPPLTDLLNGLKMGRFERGLSSFQQSVAMDRIQRIVGVLQKPQMGERYLGTLLQVEGMLKTWFPQIAAQKSSLGGGKHQLTKHFPSHHSDSAASSPASPMEKMDQTQLGHLALKPK
IC50 [1]: 375 nM
Kd [1]: 386 nM
Kd [2]: 1540 nM

B2: His-CHRONO minimal repressive domain (MRD) (domain or fragment)
chain: B1 chain
Kd [3]: 369 nM
stoichiometry N [3]: 1

B3: CK1δ kinase domain (residues 1-294) (enzyme, human, UniProt P48730 1-294, looked up)
chain: MELRVGNRYRLGRKIGSGSFGDIYLGTDIAAGEEVAIKLECVKTKHPQLHIESKIYKMMQGGVGIPTIRWCGAEGDYNVMVMELLGPSLEDLFNFCSRKFSLKTVLLLADQMISRIEYIHSKNFIHRDVKPDNFLMGLGKKGNLVYIIDFGLAKKYRDARTHQHIPYRENKNLTGTARYASINTHLGIEQSRRDDLESLGYVLMYFNLGSLPWQGLKAATKRQKYERISEKKMSTPIEVLCKGYPSEFATYLNFCRSLRFDDKPDYSYLRQLFRNLFHRQGFSYDYVFDWNMLK
binding result [4]: binds
